Experimental data as given in US7910100B2, “Antibodies directed to the mammalian EAG1 ion channel protein” (Max-Planck-Gesellschaft zur Forderung der Wissen, priority 2004, dated 2011).

B1: ImAb1: mouse monoclonal anti-Eag1 antibody; VL SEQ ID NO: 43, VH SEQ ID NO: 44; binds C-terminus of Eag1 (antibody, listed as Mus musculus)
heavy: MNFGFSLIFLVLVLKGVQCEVKLVESGGGLVKPGGSLKLSCAASGFTFSNYAMSWVRQTPEKRLEWVASISSDGDTYFPDNVKGRFTISRENAGNILFLQMSSLRSEDTAMYYCARGFMITFWGQGTLVTVSAAKTTPPSVYPLAPGCGDTTGSSVTLGCLVKGYFPESVTVTWNSGSLSSSVHTFPALLQSGLYTMSSSVTVPSSTWPSQTVTCSVAHPASSTTVD
light: MDMRAPAQFFGILLLWFPGIRCDIKMTQSPSSMYASLGERVTITCKASQDIKSYLSWYQQKPWKSPKILIYYATSLADGVPSRISGSGSGQDYSLTISSLESDDTATYYCLQHGESPYTFGGGTKLEIKRADAAPTVSIFPPSSEQLTSGGASVVCFLNNFYPKDINVKWKIDGSERQNGVLNSWTDQDSKDSTYSMSSTLTLTKDEYERHNSYTCEATHKTSTSPIVKSFNRNEC
B2: ImAb4: mouse monoclonal anti-Eag1 antibody, IgG2b kappa; light chain SEQ ID NO: 2, heavy chain SEQ ID NO: 4 (antibody, listed as Mus musculus)
heavy: MRVLILLWLFTAFPGILSDVQLQESGPGLVKPSQSLSLTCTVTGYSITSDYAWNWIRQFPGNKLEWMGYISYSGSTIYNPSLKSRISITRDTSKNQFFLQLNSVTTEDTATYYCARFGNYGNTLNYWGQGTSVTVSSAKTTPPSVYPLAPGCGDTTGSSVTLGCLVKGYFPESVTVTWNSGSLSSSVHTFPALLQSGLYTMSSSVTVPSSTWPSQTVTCSVAHPASSTTVDKKLEPSGPISTINPCPPCKECHKCPAPNLEGGPSVFIFPPNIKDVLMISLTPKVTCVVVDVSEDDPDVQISWFVNNVEVHTAQTQTHREDYNSTIRVVSTLPIQHQDWMSGKEFKCKVNNKDLPSPIERTISKIKGLVRAPQVYILPPPAEQLSRKDVSLTCLVVGFNPGDISVEWTSNGHTEENYKDTAPVLDSDGSYFIYSKLNMKTSKWEKTDSFSCNVRHEGLKNYYLKKTISRSPGK
light: MKLPVRLLVLMFWIPASSSDVVMTQTPLSLPVSLGDQASISCRSSQSLVHSNGNTYLHWYLQKPGQSPKLLIYKVSNRFSGVPDRFSGSGSGTDFTLKISRVEAEDLGVYFCSQSTHVPPTFGGGTKLEIKRADAAPTVSIFPPSSEQLTSGGASVVCFLNNFYPKDINVKWKIDGSERQNGVLNSWTDQDSKDSTYSMSSTLTLTKDEYERHNSYTCEATHKTSTSPIVKSFNRNEC

What was measured:
Eag1 current = target: T1, Eag1 current (Homo sapiens, UniProt O95259); experiment: Two-electrode voltage clamp in Eag1-expressing oocytes; assay type: cell-based; conditions: 10% hybridoma supernatant
T1 construct: expressed in transfected cells
T1 sequence (O95259 1-962 isoform O95259-2): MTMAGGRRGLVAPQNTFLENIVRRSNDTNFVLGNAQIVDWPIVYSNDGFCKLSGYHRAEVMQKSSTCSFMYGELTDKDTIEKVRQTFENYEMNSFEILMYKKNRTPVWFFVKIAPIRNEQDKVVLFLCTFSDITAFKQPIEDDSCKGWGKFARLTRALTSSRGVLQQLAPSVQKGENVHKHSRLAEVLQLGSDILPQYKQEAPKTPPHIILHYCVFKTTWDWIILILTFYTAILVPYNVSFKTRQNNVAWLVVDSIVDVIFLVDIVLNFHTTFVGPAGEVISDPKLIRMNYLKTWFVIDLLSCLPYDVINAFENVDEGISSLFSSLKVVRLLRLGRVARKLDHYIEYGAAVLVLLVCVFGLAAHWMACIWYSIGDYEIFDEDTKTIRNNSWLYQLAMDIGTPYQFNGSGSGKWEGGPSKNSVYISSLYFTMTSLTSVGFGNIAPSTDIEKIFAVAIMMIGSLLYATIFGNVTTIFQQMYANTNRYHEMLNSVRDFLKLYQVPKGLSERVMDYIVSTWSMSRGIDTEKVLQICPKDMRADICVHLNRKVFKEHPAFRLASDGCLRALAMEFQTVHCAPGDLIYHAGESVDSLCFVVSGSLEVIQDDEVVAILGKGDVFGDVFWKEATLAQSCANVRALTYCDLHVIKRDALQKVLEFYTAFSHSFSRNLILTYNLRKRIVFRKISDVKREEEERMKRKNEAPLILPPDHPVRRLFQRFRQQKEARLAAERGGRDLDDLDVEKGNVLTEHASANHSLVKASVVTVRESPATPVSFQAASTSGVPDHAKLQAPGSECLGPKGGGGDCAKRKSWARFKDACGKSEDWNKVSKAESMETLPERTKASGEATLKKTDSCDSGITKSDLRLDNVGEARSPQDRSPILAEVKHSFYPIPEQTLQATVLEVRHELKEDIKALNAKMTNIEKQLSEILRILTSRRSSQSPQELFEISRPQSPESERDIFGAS
Experimental: In order to analyse the functional properties of anti-Eag1 antibodies of the invention were analysed by a two-electrode voltage clamp experiment. Therefore, Oocyte preparation and electrophysiological recordings were performed as described in Stühmer, W., 1992, Methods in Enzymology 207. Oocytes were injected with synthetic mRNA coding for Eag1, incubated for 48 h and recorded in NFR (115 mM NaCl, 1.8 CaCl2, 2.5 KCl, 10 Hepes pH 7.2) until stable traces were recorded. Then, 10% of the corresponding hybridoma supernatant producing ImAb1 or ImAb3 was added to the chamber and current amplitudes were further monitored.

IPC-298 melanoma cells = experiment: Soft agar assay IPC-298 with secondary immunotoxin Mab-ZAP; assay type: cell-based, human; conditions: 2.5 ng antibody with 100 pg Mab-ZAP, 10 days
Experimental: For comparison Mab-ZAP was pre-incubated with 2.5 ng control IgG. After 30 min pre-incubation, 2000 IPC-298 cells in OptiMEM with 20 mM KCl were added and further incubated at 37° C. for 30 min. IPC-298 cells, pre-incubated with immunotoxin-labelled anti-EAG1 antibody, were resuspended in 50 μl/well 0.25% Difco noble agar containing OptiMEM with 0.5% FCS and plated on 50 μl/well 0.5% agarose underlayer containing OptiMEM with 0.5% FCS in quadruplicates. Additionally, 50 μl/well 0.25% feeding agar containing OptiMEM with 0.5% FCS was plated. Colonies were allowed to form for 10 days and were stained with 50 μl MTT (1 mg/ml in PBS) for 1.5 hours. Wells were scanned using an Epson scanner and colonies were counted using the Scion Image software.

Eag1 currents = target: T2, Eag1 currents (Homo sapiens, UniProt O95259); experiment: Whole cell patch clamp, Eag1 currents in transfected HEK293 cells; assay type: cell-based; conditions: 300 nM, control antibody
T2 construct: expressed in transfected cells; host or cells: HEK293
T2 sequence (O95259 1-962 isoform O95259-2): T1 sequence (O95259 1-962 isoform O95259-2)
Experimental: To characterize effective affinity and specificity of the antibodies, block of Eag1 currents by ImAb3 in transfected HEK293 cells was tested in the whole cell configuration of the patch clamp technique. Currents were elicited by the depicted (FIG. 18a) pulse protocol (depolarization to +40 mV from a holding potential of −80 mV). Once a stable current level had been achieved, the antibody was applied to the bath chamber at a concentration of 300 nM, (approx 45 μg/ml). […] The antibody and the peptide were incubated (1:1 representing approximately 50 times molar excess of the peptide) at room temperature for 1 h and the mixture was used as described for the antibody alone.

Row | Molecule | inhibition of Eag1 current (Eag1 current) | inhibition of anchorage independent cell growth (IPC-298 melanoma cells) | effect on current amplitudes (Eag1 currents)
1 | B1 | No inhibition of Eag1 current was detected | – | –
2 | B2 | – | inhibits anchorage independent tumor cell growth | showed no effect on current amplitudes
